# According to the DeepSol protein solubility set:
# Assay: soluble on expression in E. coli; label from the status in PepcDB or PDB records
row,Sequence,soluble on expression in E. coli
1,MSLDMNKPEGFDCPGCAWPDPKHSASFDICENGAKAIAWEVTDKQVNASFFAENTVQSLLTWGDHELEAAGRLTQPLKYDAVSDCYKPLSWQQAFDEIGARLQSYSDPNQVEFYTSGRTSNEAAFLYQLFAREYGSNNFPDCSNMCHEPTSVGLAASIGVGKGTVLLEDFEKCDLVICIGHNPGTNHPRMLTSLRALVKRGAKMIAINPLQERGLERFTAPQNPFEMLTNSETQLASAYYNVRIGGDMALLKGMMRLLIERDDAASAAGRPSLLDDEFIQTHTVGFDELRRDVLNSEWKDIERISGLSQTQIAELADAYAAAERTIICYGMGITQHEHGTQNVQQLVNLLLMKGNIGKPGAGICPLRGHSNVQGDRTVGITEKPSAEFLARLGERYGFTPPHAPGHAAIASMQAICTGQARALICMGGNFALAMPDREASAVPLTQLDLAVHVATKLNRSHLLTARHSYILPVLGRSEIDMQKNGAQAVTVEDSMSMIHASRGVLKPAGVMLKSECAVVAGIAQAALPQSVVAWEYLVEDYDRIRNDIEAVLPEFADYNQRIRHPGGFHLINAAAERRWMTPSGKANFITSKGLLEDPSSAFNSKLVMATVRSHDQYNTTIYGMDDRYRGVFGQRDVVFMSAKQAKICRVKNGERVNLIALTPDGKRSSRRMDRLKVVIYPMADRSLVTYFPESNHMLTLDNHDPLSGIPGYKSIPVELEPSNEGHHHHHH,soluble
2,KGKSFIWIKRQLDPKVAEEVKALGLENFVFEKELKRHYPMGNLFAHVIGFTDIDGKGQEGLELSLEDSLHGEDGAEVVLRDRQGNIVDSLDSPRNKAPKNGKDIILSLD,not soluble
3,MSLSPNDHCFSSHTETGPRKRNEDFSVYIDDLNSLLTCHHGRISVFGVFDGHMGTSASDYCSFKIFNYLVSNPHFPENIQIALKESFKQVNKGFLTIADVLHINAGTTAGVCVIDDKKITTANIGDTEIMFCKRNHKPLILSNKHSPNNEIEKQRIELAGGKVFYFHGWRVEGLLGVSRSIGDIALKKFVIDEADTNQIERSPDDEFVLIGCDGLWNVISYDFCADMVREYLYTNNYNGVDENGIKKPINKKDIARYLVDLALFKQSLDNVTVSIYFFSKEGHHHHHH,soluble
4,MFTGSIVALVTPMDEKGNVSRSCLKKLIDYHVANGTSAIVSVGTTGESATLSHDEHGDVVMMTLELADGRIPVIAGTGANATAEAISLTQRFNDSGIVGCLTVTPYYNRPTQEGLFQHFKAIAEHTDLPQILYNVPSRTGCDMLPETVGRLAEIKNIIAIKEATGNLTRVHQIKELVSDDFILLSGDDASALDFMQLGGHGVISVTANVAAREMADMCKLAAEGQFAEARAINQRLMPLHNKLFVEPNPIPVKWACKALGLVATDTLRLPMTPITDHGRDIVKAALQHAGLL,not soluble
5,MSPSIFPPINFLFQNSALLSSFAAQKALSNGHPSGSSLAALEKLSKAFRRPDLHIEKLASSCIDKQKDLKMTNVVPSRNRYGRPYISGRPLLTCDRQKIVECYKKGMKKIHIAKQLGITHSCVSKVLRR,not soluble
6,METKCELNNTKKVANAFGLNEEDTNLLINAVDLDIKNNMQEISSELQQSEQSKQKQLGTTLQNLAKQNRIIK,not soluble
7,MPGQKQKGKKNVRRTKTRFELIEPSKGQLIAEVEDTHGGYPPRFSCKTVDGDIIIAPIQGSIMKGPKRVLVKKDNLVLLVPIDFTTGKEGTTSYYIHHVYTSEDRHQLEKKGFLEKKDKISDATKSTKVVFGVESSDKSLEKAKDEELDIDTI,not soluble
8,VHVEDALTYLDQVKIRFGSDPATYNGFLEIMKEFKSQSIDTPGVIRRVSQLFHEHPDLIVGFNAFLP,soluble
9,MAHHHHHHMGGYIGYNLVYNQQASVSQALWSREDEDVAPVSMPVRPRVALVNMTENLRSCAMGGLRAWLDVADEVELEFPTVTFVEDDEAGAIAGLAAEVRRAALFAWVELKERHEMDAPFGVKPLCCVVFRSITEVDGQALDAWDVQEVELRRWHGKRFVTRHCVGASVDGKRAMVLMHDVEGVIDVGPAAALAGGRVSDCGALVRQYGAPSTASFRRWKLSAEAQSSSTPVQPPAKSLQGLGIRLRDGQRCQLWQSPLHIFAALGAVLRYNRADAAVYPNHITTPVPVSQSASAVSASLWGCVKEWALRCTPTLLHWYTARQAERMERQRQLSSTFVVVVRLAEERAAVTSDVLRVVEEHVAEWMRDMNGASPMKTSLSTANRVCVRDAAARPEELMAAPTIQVDLTDTVCSVIAAEWLLIRLTSLFAALGLEPALAQLVAVPGPQASTSLLYPTPNTAHLRHLWLSRSATTSSSTITDNDAKSPRVTWSGRTTQGEHIAGCAATMPIEAGYVVSEHYFSAF,not soluble
10,MIELSHEEELRYNRQIILKSVDFDGQEKLKASKMLIVGLGGLGCAASQYLAAAGVGNLTLLDFDTVSLSNLQRQVLHCDARLNMPKVESAKIALEQINPHINIETINAKLDEEKLAEIIPHFDIVLDCTDNVEIRNQLDRQCNHMKVPLISGAAIRMEGQVSVFTYEPNTPTYRDLSKLFRQNVLSCVEAGVLAPIVGIVGCIQALEAIKVRLKIGKNLCGRLLMIDGFSMNIREIKLPTNME,not soluble
11,MSKVKRKLKNIVRNIMLSETFANTNLVKNMRKNHKEKLEEGRRVLFKEHAKDCLETIKENLDKNNLHFWLDYGTLLGAMREKDFIAHDLDIDLGMFYENQVEEVEKAFKEANIKKVREFTLDGKVVEQTYSYKGLYFDIFYYFKDENLMWTYGFTFKNNKLNKVSYKDKDVSTGFEGMKYFVKKRGLEKIMFKGKEYTVPENPDGYLRENYGPNYMTPIKEWDYVEAPTNQEKLKGGDIVMIEYYNLEHHHHHH,soluble
12,MPMLSEEEGGAKIVLEGPKELLDRIVEALKEVYDPEIPVNVYDLGLIYEVRVEGPREKPRIKVKMSLTAIGCPVSVALPAYVEDAIREAVPEAEDVEVEVVFDPPWTPERVTPEGRELLKTIYGYDVVEQWKRAAQQQYGG,soluble
13,MSTQPSHPSSSNDLDSSIGTARIEVVSVPVKPRNKFSTTPVKRVEMKKSKESDSVDKALKVKSSLDCMKLEKPAPTTCEMKAA,soluble
14,MGSDKIHHHHHHMNTDSPLKAIQPPADEQAWAVRARRQFEAEQLLYAYVEYIDDDRLEELPELFTEDGSYQIISRENVERGLPAPTMGCSNRNMLIDRIVSLRHANIYSQHAYRHVLSNVRVKAMEGDEALVQSNYVVMATRGDGIARVYSTGKYVDRLVFEEDGPKFKQKRVIFDTQLIDTLLVRPL,not soluble
15,MSLNTKLLILDDDIDILQMLKTVFIGEEMDIILESESEQALRFITTERPNVAIVDINLPRKSGLQVLQEAKKIDPGLSVIMTTGNKTTQNAIEAMKYGAYDYVTKPFDMNKLKSAVHKALECNLLSRKVRYTKDTKQLSEDEGHHHHHH,not soluble
16,MGSDKIHHHHHHMPLKTPPCVRRHTTGHETCSAQRSEHDGRRHLFPHDARALEIQERDVTHPIVSSEVPVEYINLPEPQTEGGMPLMTALHKRRSVRSFAQRPLDEALLSTLLWAAFGINRPDTGLRTAPSARNWQEIDVYVAMPDGLYALEPAAWRLRLVTGEDLRAATGLQDYVSTAPLDLVYVSRLSKLDETDKPMRQFYTALDTGYISQNVYLFCAASGLATVARGLLDRRALAKAMRLDPDQRVVLAQSVGFPA,not soluble
17,MLLQTLEERLATLRQRCAPLAQHATLSARFDRHLFRTRSTLLQGYLEEAGANLVALRQAVKHEQLPQVAWLAEHLASQLEAISRETAAWSLRQWDAAAPGLGRWQRRRIQHQEFERRLLAMTQERKIRLAQATGLVEQQTLQKEVEIYEGRLARCRHALEKIENVLARLTR,not soluble
18,ALVGDNLEQIDARLVNSLPLFKDQEGRDVNVRVGRYGPYLERQVGVSEDGEPEYQRANLSDSTTPDELTLELAEKLFATPQSGRELGRNPKNNRMIVAKEGRFGPYVTELVNDDERTEVEAKAEEIVAAEREAEDLQRAAEGKRAKNWGTKTAAAQKEKRIAQIIEETLKPSTASLFKTMEPSSVTLDEALQLLALPREVGVDPSDNEVITAQNGRYGPYLKKGSDSRTLASEDQIFSITLDEARRIYAEPKRRGRGATSQSVIKQLGDNDVSGKPMSVRDGRFGPYVTDGTTNASLRRGDDPTQLTEARANELLSERRAKEAADGGSSKKATKKASKKTTKRVAKAGARKKK,not soluble
19,GPGSATTVHGETVVNGAKLTVTKNLDLVNSNALIPNTDFTFKIEPDTTVNEDGNKFKGVALNTPMTKVTYTNSDKGGSNTKTAEFDFSEVTFEKPGVYYYKVTEEKIDKVPGVSYDTTSYTVQVHVLWNEEQQKPVATYIVGYKEGSKVPIQFKASLDSTTLTVKKKVSGTGGDRSKDFNFGLTLKANQYYKASEKVMIEKTTKGGQAPVQTEASIDQLYHFTLKDGESIKVTNLPVGVDYVVTEDDYKSEKYTTNVEVSPQDGAVKNIAGNSTEQETSTDKDMTITFTNKKVFE,soluble
20,SSLYRLFQSSKRPFASFSAPLVRFTNSRCVSAVLSRKETAPSSIYGNRVSRVSGFGALDIRSLNFSTKSSQINDAGSIDQTLMQSMELKIKEQLNAESVTVTDMSGDGRHVCINVVSSAFEGQSAVNRQRMVYKAIWEELQNVVHAVDQMTTKTPSEV,soluble
21,MKCGLEIHVQLDTRSKLFCRCPTDYQEAPPNTNICPVCLNQPGAKPYPPNRSALEGALKIALMLDCRINPEITYFMRKHYNYPDLPSGYQRTSIPVGLEGELNGVRIREVHIEEDPGQYKPDQGTVDFNRSGIPLIEIVTEPDMTSPEEARNFLRELIRVLEYSGCARGEGTMRADVNISLEGGKRVEIKNINSIKGAYKALKFEMIRQKNLLKRGVEVKQETRAFLESQMITVSMRLKEEAEDYRYIPDPDLPPMKFTDEVVEGLRERIPEAPHLKVKRFMEEYGLREEDARVLTSELELADAFEEVAGSIDPEFAALWMRDELKRVLYYNKISFAESMITPGDIIELLAMIRKKEITSKAAKKIIEEMPLNKKGPREIATEMGLIGIIDESEVIRAVEQAIRENPGAVEDYHAGKEAAINFLVGQVMRMTRGKAEPERTVELIKERI,soluble
22,MSMVETAPSKIQVRDLNFYYGKFHALKNINLDIAKNQVTAFIGPSGCGKSTLLRTFNKMYSLYPEQRAEGEILLDGDNILTNTQDIALLRAKVGMVFQKPTPFPMSIYDNIAFGVRLFEKLSRADMDERVQWALTKAALWNETKDKLHQSGYSLSGGQQQRLCIARGIAIRPEVLLLDEPCSALDPISTGRIEELITELKQDYTVVIVTHNMQQAARCSDHTAFMYLGELIEFSNTDDLFTKPAKKQTEDYITGRYG,not soluble
23,MRVNVPVQVPPPASPPQPSQPAGQAQGGVTAPVIKVLPGNPLPPAGSAFVDDFSSYPTGAVLPMVAPDRYGVYKAPNGTLSPAVAETFTPQGGLDKALRLEAANTAMLTTGAPDWTDYRVSFRFKYETGGTLDVGLFVHGSGDRMLIVRLGWGYTGGVHLIKVAGDQRFTLVSRRELKPLTEALKDQNWHDFAAEARSDGTVRVMVDQQTVIEWKDPDYRAGGIGIGINRLGDRIIWHIDDLKVERL,soluble
24,MGSDKIHHHHHHVGAGGRDVVWTPRSLYLTDFIHANLLEKLKMQTLIIYSTIDGQTLAICQKIKLFAEQAGENVSLVTLEQAEALSLADFDKVLIGASIRYGKYRPELYQFVNRHHAVLDTKINGFFSVNVVARKPLKNTPETNPYMQKFLKLSLWQPQHLAVFAGKIDYPKYSFFDRTMIRFIMWMTKGPTDINGTFEFTDWAKVDAFGTDFSHQ,not soluble
